Experimental data as given in patent US20210246210A1 (JIANGSU ALPHAMAB BIOPHARMACEUTICALS, published 2021).
Blank lines part the entries; values can stand above or below the binder they belong to.

What was measured:
[1] = molecular target: T1, CTLA4-muFc (human); test: ELISA, CTLA4-muFc coated, anti-human Fc-HRP detection (FIG. 2, Panel C)
T1 construct: also called soluble human CTLA4
Method: (§1) A 96-well plate was coated with CTLA4-muFc (human CTLA4 extracellular domain fused to the N-terminus of mouse Fc, its amino acid sequence is as set forth in SEQ ID NO: 52). Various concentrations of the samples as well as control molecules were added. HRP labeled goat anti-human Fc antibody was used for detection. After being developed with TMB, the plate was read at a wavelength of 450/650 nm in a microplate reader.

[2] = molecular target: human PD-L1 (WT) (human, UniProt Q9NZQ7 19-238, limits assumed); test: method not stated; PD-L1 ISVD-9 on human PD-L1 WT
[3] = molecular target: T2, PD-L1-muFc (human); test: ELISA, PD-L1-muFc coated, anti-human Fc-HRP detection (FIG. 2, Panel B)
T2 construct: also called soluble human PD-L1
Method: as §1, with “PD-L1-muFc” for “CTLA4-muFc”, “PD-L1” for “CTLA4”, “to” for “to the”, “53).” for “52).”

human PD-L1 (WT), sequence (Q9NZQ7 19-238 limits assumed): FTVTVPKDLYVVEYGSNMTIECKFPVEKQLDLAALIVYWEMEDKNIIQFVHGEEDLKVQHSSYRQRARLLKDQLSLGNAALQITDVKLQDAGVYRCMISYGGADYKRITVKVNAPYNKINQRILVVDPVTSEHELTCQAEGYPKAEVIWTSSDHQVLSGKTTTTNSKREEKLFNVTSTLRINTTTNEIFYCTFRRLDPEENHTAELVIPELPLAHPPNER
T1 sequence (chain, as listed by the source limits assumed): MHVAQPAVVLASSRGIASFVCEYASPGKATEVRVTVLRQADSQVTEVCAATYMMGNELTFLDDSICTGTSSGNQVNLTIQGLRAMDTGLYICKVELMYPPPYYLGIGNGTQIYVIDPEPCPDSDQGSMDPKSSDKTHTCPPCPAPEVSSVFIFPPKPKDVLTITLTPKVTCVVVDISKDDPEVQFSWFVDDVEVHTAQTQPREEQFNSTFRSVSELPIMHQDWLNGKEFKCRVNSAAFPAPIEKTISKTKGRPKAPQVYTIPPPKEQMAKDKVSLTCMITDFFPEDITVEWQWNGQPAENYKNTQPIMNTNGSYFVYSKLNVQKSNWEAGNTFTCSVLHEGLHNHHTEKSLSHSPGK
T2 sequence (chain, as listed by the source limits assumed): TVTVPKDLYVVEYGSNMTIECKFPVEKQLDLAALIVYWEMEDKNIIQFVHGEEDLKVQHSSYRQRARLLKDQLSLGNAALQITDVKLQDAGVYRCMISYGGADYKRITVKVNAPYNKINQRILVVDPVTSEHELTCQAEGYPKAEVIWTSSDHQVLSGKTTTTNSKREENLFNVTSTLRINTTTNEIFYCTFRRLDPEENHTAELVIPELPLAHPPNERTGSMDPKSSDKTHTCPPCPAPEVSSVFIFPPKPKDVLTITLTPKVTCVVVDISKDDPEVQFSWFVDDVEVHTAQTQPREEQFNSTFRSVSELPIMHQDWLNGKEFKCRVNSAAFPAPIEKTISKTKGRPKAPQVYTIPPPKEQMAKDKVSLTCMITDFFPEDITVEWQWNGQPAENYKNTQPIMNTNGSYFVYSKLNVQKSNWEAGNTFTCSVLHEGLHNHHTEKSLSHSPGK

- EC50 [1]: ~0.5 nM
B1: ipilimumab (antibody, V domains shown)
VH: QVQLVESGGGVVQPGRSLRLSCAASGFTFSSYTMHWVRQAPGKGLEWVTFISYDGNNKYYADSVKGRFTISRDNSKNTLYLQMNSLRAEDTAIYYCARTGWLGPFDYWGQGTLVTVSS
VL: not shown

- Kd [2]: 5.92 nM
B2: PD-L1 ISVD-9 (VHH)
VHH: QVQLVESGGGLVQPGGSLRLSCAASGKMSSRRCMAWFRQAPGKERERVAKLLTTSGSTYLADSVKGRFTISRDNSKNTVYLQMNSLRAEDTAVYYCAADSFEDPTCTLVTSSGAFQYWGQGTLVTVSS
notes: also called aPDL1.9; humanized variant of PD-L1 ISVD-4

- EC50 [3]: ~0.6 nM
B3: durvalumab (antibody, V domains shown)
VH: EVQLVESGGGLVQPGGSLRLSCAASGFTFSRYWMSWVRQAPGKGLEWVANIKQDGSEKYYVDSVKGRFTISRDNAKNSLYLQMNSLRAEDTAVYYCAREGGWFGELAFDYWGQGTLVTVSS
VL: EIVLTQSPGTLSLSPGERATLSCRASQRVSSSYLAWYQQKPGQAPRLLIYDASSRATGIPDRFSGSGSGTDFTLTISRLEPEDFAVYYCQQYGSLPWTFGQGTKVEIK
